Source: patent US20220356230A1 (published 2022)
Residue numbers refer to the chain shown, from its start.

B1: mAb10971 (antibody, V domains shown)
VH: EVQLVESGGGLIQPGGSLRLSCAASGVTVSSNYMSWVRQAPGKGLEWVSVIYSGGSTFYSDSVKGRFSISRDNSKNTLYLQMNSLRAEDTAVYYCARDLYYYGMDVWGQGTTVTVSS
VL: DIQLTQSPSFLSASVGDRVTITCRASQGISTYLAWYQQKPGKAPKLLIYAASTLQSGVPSRFSGSGSGTEFTLTISSLQPEDFATYYCQQLDSYPGLTFGGGTKVEIKR
B2: mAb10956 (antibody, V domains shown)
VH: B1 VH with I12V, V27L, S60A, S68T, Y100I, Y101K
VL: not shown
B3: mAb10957 (antibody, V domains shown)
VH: B1 VH with I12V, S60A, S68T, Y79F, A87I, Y100G, Y101P
VL: B1 VL with T31S, E70Q, T72I, D92N, L97F, G101P, E106D
B4: mAb10967 (antibody, V domains shown)
VH: EVQLVESGGGLVQPGGSLRLSCAASGFTVSSNYMSWVRQAPGKGLEWVSVIYPGGSTFYADSVKGRFTISRDNSKNTLYLQMNSLRAEDTAVYYCARDQRDFAWGQGTLVTVSS
VL: DIQMTQSPSSLSASVGDRVTITCQASQDISNYLNWYQQKPGKAPKLLIYDASNLETGVPSRFSGSGSGTDFTFTISGLQPEDIATYYCQQYDNLPPTFGQGTRLEIKR
B5: mAb10954 (antibody, V domains shown)
VH: EVQLVESGGGLVQPGGSLRLSCAASGITVSSNYMSWVRQAPGKGLEWVSLIYSGGSTYYADSVKGRFTISRDNSKNTLYLQMNSLRVEDTAVYYCARDHGMAAAGYNYWGQGTLVTVSS
VL: B4 VL with S30N, N31K, S76N, G77S, I83F, Y87F, T97A, R103K, L104V
B6: mAb10964 (antibody, V domains shown)
VH: QVQLQESGPGLVKPSETLSLTCTVSGGSINNYYWIWIRQPPGKGLEWIGYIYHSGSTNYNPSLKSRVTISVDTSKNQFSLKVSSVTAADTAVYYCANMVRGVYEDDYWGQGTLVTVSS
VL: DIQMTQSPSSLSASVGDRVTITCRASQSISNYLNWYQQKPGKAPKLLIFAASSLRSGVPSRFSGSGSGTDFTLTISSLHPEDFATYYCQQNYNTPLTFGPGTKVDIKR
B7: mAb10986 (antibody, V domains shown)
VH: EVQLVESGGGLVQPGGSLRLSCAASEFTVSSNYMSWVRQAPGKGLEWVSVIYSGGSTFYADSVKGRFTISRDNSKNTLYLQMNSLRAEDTAVYYCARALPYGDLHFDYWGQGTLVTVSS
VL: QSVLTQPPSVSGAPGQRVTISCTGSSSNIGTGYDVHWYQQLPGTAPKLLIYGNTNRPSGVPDRFSGSKSGTSASLAITGLQAEDEADYYCQSYDSSLSDSYVFGTGTKVTVLG
B8: mAb10985 (antibody, V domains shown)
VH: EVQLVESGGGLVQPGRSLRLSCAASGFTFDDYAMHWVRQAPGKGLEWVSGISWNRGSIGYADSVKGRFTISRDNAKNSLYLQMSSLRAEDTALYYCAKDGERWDSVVVPSARNGMDVWGQGTTVTVSS
VL: B7 VL with T31A, T54S, D99G
B9: mAb10966 (antibody, V domains shown)
VH: EVQLVESGGGLVQPGGSLRLSCAASGLTVSSNYMSWVRQAPGKGLEWVSVIYSGGSTFYADSVKGRFTISRDNSKNTLYLQMNSLRPEDTAVYYCAREGRIAATGYGMDVWGQGTTVTVSS
VL: not shown
B10: mAb10989 (antibody, V domains shown)
VH: QVQLVQSGAEVKKPGASVKVSCKASGYIFTGYYMHWVRQAPGQGLEWMGWINPNSGGANYAQKFQGRVTLTRDTSITTVYMELSRLRFDDTAVYYCARGSRYDWNQNNWFDPWGQGTLVTVSS
VL: QSALTQPASVSGSPGQSITISCTGTSSDVGTYNYVSWYQQHPGKAPKLMIFDVSNRPSGVSDRFSGSKSGNTASLTISGLQAEDEADYYCSSFTTSSTVVFGGGTKLTVLG
B11: mAb10932 (antibody, V domains shown)
VH: EVQLVESGGGLVQSGGSLRLSCAASGLTVSSNYMSWVRQAPGKGLEWVSVIYSGGSTFYSDSVKGRFTISRHNSKNTLYLQMNSLRAEDTAVYYCARARGDAFDIWGQGTMVTVSS
VL: not shown
B12: mAb10939 (antibody, V domains shown)
VH: EVQLVESGGGLVQPGGSLRLSCAASGLTVSSNYMNWVRQVPGKGLEWVSVIYSGGSKFYVDSVKGRFTISRHNSKNTLYLQMNSLRPEDTAVYYCTRDAQYYGMDVWGQGTTVTVSS
VL: DIQMTQSPSSLSASVGDRVTITCRASQSISTYLHWYQQKPGEAPKLLIYAASSLQSGVPSRFSGSGSGTDFTLTISSLQPEDFATYYCQQSYSTPPEIFGQGTKLEIKR
B13: mAb10930 (antibody, V domains shown)
VH: EVQLVESGGGLVQPGRSLRLSCAASGFTFDDYAMYWVRQAPGKGLEWVSGISWNSGSIGYADSVKGRFTISRDNAKNSLYLQMNSLRAADTALYYCAKDKDWNSRGYYYYGMDVWGQGTTVTVSS
VL: not shown
B14: mAb10921 (antibody, V domains shown)
VH: EVQLVESGGGLVQPGGSLRLSCAASGITVSSNYMSWVRQAPGKGLEWVSVIYSGGSTFYADSVKGRFTISRHNSKNTLYLQMNSLRAEDTAVYYCARERNFDAFDIWGQGTMVTVSS
VL: DIQMTQSPSSVSASVGDRVTITCRASQGISSWLAWYQQKPGKAPKLLIYAASSLQSGVPSRFSGSGSGTDFTLTISSLQPEDFATYYCQQANSFPLFTFGPGTKVDIKR
B15: mAb10934 (antibody, V domains shown)
VH: not shown
VL: B4 VL with S30W, L33I, E55K, G77S, Y91H, N93D, R103K, L104V
B16: mAb10935 (antibody, V domains shown)
VH: EVQLVESGGGLVQPGGSLRLSCAASGFTVSSNYMSWVRQAPGKGLEWVSLIYSGGSTYYADSVKGRFTISRHNSKNTLYLQMNSLRSEDTAVYYCARVPLGDYYYGMDVWGQGTTVTVSS
VL: B4 VL with S30N, N31K, G77S, Y91S, P96L, Q100G, R103K, L104V
B17: mAb10982 (antibody, V domains shown)
VH: EVQLVESGGGLVQPGGSLRLSCAASGLTVSSNYMSWVRQAPGKGLEWVSVIYSGGTTYYADSVKGRFTISRHNSKNTLSLQMNSLRAEDTAVYYCARGEGANYYGMDVWGQGTTVTVSS
VL: B7 VL with T54S, D99G, S100Y, Y101V, T105G, V109L
B18: mAb10913 (antibody, V domains shown)
VH: EVQLVESGGGLVQPGGSLRLSCAASGFTFRNYEMNWVRQAPGKGLEWVSYITSSGSTMYYADSVKGRFTISRDNAKNSLYLQMNSLRAEDTAVYYCARDGFYYYYAMDVWGQGTTVTVSS
VL: QSVLTQPPSVSAAPGQKVTISCSGSSSNIGNNYVSWYQQLPGTAPKLLIYDNNKRPSGIPDRFSGSKSGTSATLGITGLQTGDEADYYCGTWDSSLSVGRVFGTGTKVTVLG
B19: mAb10937 (antibody, V domains shown)
VH: QITLKESGPTLVKPTQTLTLTCTFSGFSLSTNVVGVGWIRQPPGKALEWLALIYWNDDKRYSPSLKSRLTITKDTSKNQVVLTMTNMDPVDTATYYCAHGPTGDYFDYWGQGTLVTVSS
VL: not shown

biological target: SARS-CoV-2 Spike Protein (S1 Subunit, Fc Tag) (Sino 40591-V02H) (SARS-CoV-2, UniProt P0DTC2 16-685); experiment: Luminex bead assay, supernatant on antigen microspheres

Row | Binder | Binding signal (MFI)
1 | B1 | 17000
2 | B2 | 15000
3 | B3 | 8450
4 | B4 | 15800
5 | B5 | 16600
6 | B6 | 18600
7 | B7 | 16000
8 | B8 | 16200
9 | B9 | 16400
10 | B10 | 12300

biological target: SARS-CoV-2 Spike Protein (S1 Subunit, His Tag) (Sino 40591-V08H) (SARS-CoV-2, UniProt P0DTC2 16-685); experiment: as above

Row | Binder | Binding signal (MFI)
11 | B1 | 21600
12 | B2 | 20000
13 | B3 | 12000
14 | B4 | 21900
15 | B5 | 21300
16 | B6 | 24200
17 | B7 | 19100
18 | B9 | 23300
19 | B10 | 14200

biological target: SARS-CoV-2 Spike Protein (S1 Subunit, Fc Tag) (Sino 40591-V02H) (SARS-CoV-2, UniProt P0DTC2 16-685); experiment: Luminex bead assay, antibody supernatant, antigen on microspheres

Row | Binder | Binding signal (MFI)
20 | B11 | 17600
21 | B12 | 18200
22 | B13 | 16500
23 | B14 | 8960
24 | B15 | 20600
25 | B16 | 20000
26 | B17 | 10800
27 | B18 | 18900
28 | B19 | 19600

biological target: SARS-CoV-2 Spike Protein (S1 Subunit, His Tag) (Sino 40591-V08H) (SARS-CoV-2, UniProt P0DTC2 16-685); experiment: as above

Row | Binder | Binding signal (MFI)
29 | B11 | 22100
30 | B12 | 23900
31 | B13 | 21200
32 | B14 | 12200
33 | B15 | 27500
34 | B16 | 25600
35 | B17 | 14000
36 | B18 | 24900
37 | B19 | 26400
